Consider 1 molecule from patent publication US20250018039A1 (published 2025).

The target in the assay is T1, wild-type human RAS (KRAS) peptide on HLA-A*03:01 (human).
T1 peptide: VVVGAGGVGK
Put plainly: cytokine release. The protocol: Cos7 cells transduced with human HLA A*03:01 were independently pulsed with the G12V RAS peptide […] (SEQ ID NO: 33) or the corresponding wild-type peptide […] The transduced cells (effector cells) were co-cultured with the peptide-pulsed target cells. Interferon-gamma secretion was measured.

B1: TCR 807 (TCR, V domains shown)
Valpha: QQKVQQSPESLSVPEGGMASLNCTSSDRNFQYFWWYRQHSGEGPKALMSIFSDGDKKEGRFTAHLNKASLHVSLHIRDSQPSDSALYFCAARPGTQVVGQLTFGRGTRLQVYA
Vbeta: AQTIHQWPVAEIKAVGSPLSLGCTIKGKSSPNLYWYWQATGGTLQQLFYSITVGQVESVVQLNLSASRPKDDQFILSTEKLLLSHSGFYLCAWRDRPSSYEQYFGPGTRLTVL
For B1, the binding result was “no recognition”.
